Assay results taken from paper PMC7367873, “Dissecting the sequence determinants for dephosphorylation by the catalytic subunits of phosphatases PP1 and PP2A” (Nature Communications, 2020).
One block for each molecule: values may come before it.

Experiments:
[1] = test system: GFP-14-3-3β; experiment: GFP-14-3-3β co-IP with LC-MS/MS, untreated GFP-14-3-3β versus GFP control (14-3-3 interactome); format: binding, human
[2] = test system: GFP-14-3-3β and its binding proteins; experiment: GFP-14-3-3β co-IP with LC-MS/MS label-free quantification, untreated versus PP1c-treated; set-up: species or system human
[3] = untreated vs GFP, LFQ intensities, replicates 1-3
[4] = PP1 vs untreated, LFQ intensities, replicates 1-3

B1: KRT18 (protein, UniProt P05783 2-430, looked up)
Keratin, type I cytoskeletal …: SFTTRSTFSTNYRSLGSVQAPSYGARPVSSAASVYAGAGGSGSRISVSRSTSFRGGMGSGGLATGIAGGLAGMGGIQNEKETMQSLNDRLASYLDRVRSLETENRRLESKIREHLEKKGPQVRDWSHYFKIIEDLRAQIFANTVDNARIVLQIDNARLAADDFRVKYETELAMRQSVENDIHGLRKVIDDTNITRLQLETEIEALKEELLFMKKNHEEEVKGLQAQIASSGLTVEVDAPKSQDLAKIMADIRAQYDELARKNREELDKYWSQQIEESTTVVTTQSAEVGAAETTLTELRRTVQSLEIDLDSMRNLKASLENSLREVEARYALQMEQLNGILLHLESELAQTRAEGQRQAQEYEALLNIKVKLEAEIATYRRLLEDGEDFNLGDALDSSNSMQTIQKTTTRRIVDGKVVSETNDTKVLRH
Difference (log2), untreated vs GFP ([1]; log2 difference, pairwise comparison untreated vs GFP, label-free quantification, 3 replicates each): -2.259
Difference (log2), PP1 vs untreated ([2]; log2 difference, pairwise comparison PP1 vs untreated, label-free quantification, 3 replicates each): 1.649

B2: YWHAH (protein, UniProt Q04917 2-246, looked up)
14-3-3 protein eta: GDREQLLQRARLAEQAERYDDMASAMKAVTELNEPLSNEDRNLLSVAYKNVVGARRSSWRVISSIEQKTMADGNEKKLEKVKAYREKIEKELETVCNDVLSLLDKFLIKNCNDFQYESKVFYLKMKGDYYRYLAEVASGEKKNSVVEASEAAYKEAFEISKEQMQPTHPIRLGLALNFSVFYYEIQNAPEQACLLAKQAFDDAIAELDTLNEDSYKDSTLIMQLLRDNLTLWTSDQQDEEAGEGN
Difference (log2), untreated vs GFP [1, 3]: 7.762 log2
Difference (log2), PP1 vs untreated [2, 4]: -0.8796 log2

B3: SH3BP5L (protein, UniProt Q7L8J4 1-393, looked up)
SH3 domain-binding protein …: MAELRQVPGGRETPQGELRPEVVEDEVPRSPVAEEPGGGGSSSSEAKLSPREEEELDPRIQEELEHLNQASEEINQVELQLDEARTTYRRILQESARKLNTQGSHLGSCIEKARPYYEARRLAKEAQQETQKAALRYERAVSMHNAAREMVFVAEQGVMADKNRLDPTWQEMLNHATCKVNEAEEERLRGEREHQRVTRLCQQAEARVQALQKTLRRAIGKSRPYFELKAQFSQILEEHKAKVTELEQQVAQAKTRYSVALRNLEQISEQIHARRRGGLPPHPLGPRRSSPVGAEAGPEDMEDGDSGIEGAEGAGLEEGSSLGPGPAPDTDTLSLLSLRTVASDLQKCDSVEHLRGLSDHVSLDGQELGTRSGGRRGSDGGARGGRHQRSVSL
Difference (log2), untreated vs GFP [1, 3]: 3.944 log2
Difference (log2), PP1 vs untreated [2, 4]: -0.8873 log2

B6: NOP56 (protein, UniProt O00567 1-594, looked up)
Nucleolar protein 56: MVLLHVLFEHAVGYALLALKEVEEISLLQPQVEESVLNLGKFHSIVRLVAFCPFASSQVALENANAVSEGVVHEDLRLLLETHLPSKKKKVLLGVGDPKIGAAIQEELGYNCQTGGVIAEILRGVRLHFHNLVKGLTDLSACKAQLGLGHSYSRAKVKFNVNRVDNMIIQSISLLDQLDKDINTFSMRVREWYGYHFPELVKIINDNATYCRLAQFIGNRRELNEDKLEKLEELTMDGAKAKAILDASRSSMGMDISAIDLINIESFSSRVVSLSEYRQSLHTYLRSKMSQVAPSLSALIGEAVGARLIAHAGSLTNLAKYPASTVQILGAEKALFRALKTRGNTPKYGLIFHSTFIGRAAAKNKGRISRYLANKCSIASRIDCFSEVPTSVFGEKLREQVEERLSFYETGEIPRKNLDVMKEAMVQAEEAAAEITRKLEKQEKKRLKKEKKRLAALALASSENSSSTPEECEEMSEKPKKKKKQKPQEVPQENGMEDPSISFSKPKKKKSFSKEELMSSDLEETAGSTSIPKRKKSTPKEETVNDPEEAGHRSGSKKKRKFSKEEPVSSGPEEAVGKSSSKKKKKFHKASQED
Difference (log2), untreated vs GFP [1, 3]: 2.987 log2
Difference (log2), PP1 vs untreated [2, 4]: -0.8589 log2

B7: HSPD1 (protein, UniProt P10809 27-573, looked up)
60 kDa heat shock protein, …: AKDVKFGADARALMLQGVDLLADAVAVTMGPKGRTVIIEQSWGSPKVTKDGVTVAKSIDLKDKYKNIGAKLVQDVANNTNEEAGDGTTTATVLARSIAKEGFEKISKGANPVEIRRGVMLAVDAVIAELKKQSKPVTTPEEIAQVATISANGDKEIGNIISDAMKKVGRKGVITVKDGKTLNDELEIIEGMKFDRGYISPYFINTSKGQKCEFQDAYVLLSEKKISSIQSIVPALEIANAHRKPLVIIAEDVDGEALSTLVLNRLKVGLQVVAVKAPGFGDNRKNQLKDMAIATGGAVFGEEGLTLNLEDVQPHDLGKVGEVIVTKDDAMLLKGKGDKAQIEKRIQEIIEQLDVTTSEYEKEKLNERLAKLSDGVAVLKVGGTSDVEVNEKKDRVTDALNATRAAVEEGIVLGGGCALLRCIPALDSLTPANEDQKIGIEIIKRTLKIPAMTIAKNAGVEGSLIVEKIMQSSSEVGYDAMAGDFVNMVEKGIIDPTKVVRTALLDAAGVASLLTTAEVVVTEIPKEEKDPGMGAMGGMGGGMGGGMF
Difference (log2), untreated vs GFP [1, 3]: -0.2089 log2
Difference (log2), PP1 vs untreated [2, 4]: -0.8196 log2

B8: CDC42EP1 (protein, UniProt Q00587 1-391, looked up)
Cdc42 effector protein 1: MPGPQGGRGAATMSLGKLSPVGWVSSSQGKRRLTADMISHPLGDFRHTMHVGRGGDVFGDTSFLSNHGGSSGSTHRSPRSFLAKKLQLVRRVGAPPRRMASPPAPSPAPPAISPIIKNAISLPQLNQAAYDSLVVGKLSFDSSPTSSTDGHSSYGLDSGFCTISRLPRSEKPHDRDRDGSFPSEPGLRRSDSLLSFRLDLDLGPSLLSELLGVMSLPEAPAAETPAPAANPPAPTANPTGPAANPPATTANPPAPAANPSAPAATPTGPAANPPAPAASSTPHGHCPNGVTAGLGPVAEVKSSPVGGGPRGPAGPALGRHWGAGWDGGHHYPEMDARQERVEVLPQARASWESLDEEWRAPQAGSRTPVPSTVQANTFEFADAEEDDEVKV
Difference (log2), untreated vs GFP [1, 3]: 1.906 log2
Difference (log2), PP1 vs untreated [2, 4]: -0.8522 log2

Now from value to molecule, other results behind:

Difference (log2), PP1 vs untreated [2, 4]: -0.8521 log2
B4: NOLC1 (protein, UniProt Q14978 1-699, looked up)
Nucleolar and coiled-body …: MADAGIRRVVPSDLYPLVLGFLRDNQLSEVANKFAKATGATQQDANASSLLDIYSFWLKSAKVPERKLQANGPVAKKAKKKASSSDSEDSSEEEEEVQGPPAKKAAVPAKRVGLPPGKAAAKASESSSSEESSDDDDEEDQKKQPVQKGVKPQAKAAKAPPKKAKSSDSDSDSSSEDEPPKNQKPKITPVTVKAQTKAPPKPARAAPKIANGKAASSSSSSSSSSSSDDSEEEKAAATPKKTVPKKQVVAKAPVKAATTPTRKSSSSEDSSSDEEEEQKKPMKNKPGPYSSVPPPSAPPPKKSLGTQPPKKAVEKQQPVESSEDSSDESDSSSEEEKKPPTKAVVSKATTKPPPAKKAAESSSDSSDSDSSEDDEAPSKPAGTTKNSSNKPAVTTKSPAVKPAAAPKQPVGGGQKLLTRKADSSSSEEESSSSEEEKTKKMVATTKPKATAKAALSLPAKQAPQGSRDSSSDSDSSSSEEEEEKTSKSAVKKKPQKVAGGAAPSKPASAKKGKAESSNSSSSDDSSEEEEEKLKGKGSPRPQAPKANGTSALTAQNGKAAKNSEEEEEEKKKAAVVVSKSGSLKKRKQNEAAKEAETPQAKKIKLQTPNTFPKRKKGEKRASSPFRRVREEEIEVDSRVADNSFDAKRGAAGDWGERANQVLKFTKGKSFRHEKTKKKRGSYRGGSISVQVNSIKFDSE
Difference (log2), untreated vs GFP [1, 3]: 2.872 log2

Difference (log2), PP1 vs untreated [2, 4]: -0.8147 log2
B5: COPB1 (protein, UniProt P53618 2-953, looked up)
Coatomer subunit beta: TAAENVCYTLINVPMDSEPPSEISLKNDLEKGDVKSKTEALKKVIIMILNGEKLPGLLMTIIRFVLPLQDHTIKKLLLVFWEIVPKTTPDGRLLHEMILVCDAYRKDLQHPNEFIRGSTLRFLCKLKEAELLEPLMPAIRACLEHRHSYVRRNAVLAIYTIYRNFEHLIPDAPELIHDFLVNEKDASCKRNAFMMLIHADQDRALDYLSTCIDQVQTFGDILQLVIVELIYKVCHANPSERARFIRCIYNLLQSSSPAVKYEAAGTLVTLSSAPTAIKAAAQCYIDLIIKESDNNVKLIVLDRLIELKEHPAHERVLQDLVMDILRVLSTPDLEVRKKTLQLALDLVSSRNVEELVIVLKKEVIKTNNVSEHEDTDKYRQLLVRTLHSCSVRFPDMAANVIPVLMEFLSDNNEAAAADVLEFVREAIQRFDNLRMLIVEKMLEVFHAIKSVKIYRGALWILGEYCSTKEDIQSVMTEIRRSLGEIPIVESEIKKEAGELKPEEEITVGPVQKLVTEMGTYATQSALSSSRPTKKEEDRPPLRGFLLDGDFFVAASLATTLTKIALRYVALVQEKKKQNSFVAEAMLLMATILHLGKSSLPKKPITDDDVDRISLCLKVLSECSPLMNDIFNKECRQSLSHMLSAKLEEEKLSQKKESEKRNVTVQPDDPISFMQLTAKNEMNCKEDQFQLSLLAAMGNTQRKEAADPLASKLNKVTQLTGFSDPVYAEAYVHVNQYDIVLDVLVVNQTSDTLQNCTLELATLGDLKLVEKPSPLTLAPHDFANIKANVKVASTENGIIFGNIVYDVSGAASDRNCVVLSDIHIDIMDYIQPATCTDAEFRQMWAEFEWENKVTVNTNMVDLNDYLQHILKSTNMKCLTPEKALSGYCGFMAANLYARSIFGEDALANVSIEKPIHQGPDAAVTGHIRIRAKSQGMALSLGDKINLSQKKTSI
Difference (log2), untreated vs GFP [1, 3]: 0.6071 log2

Difference (log2), PP1 vs untreated [2, 4]: -0.8285 log2
B9: CDR2L (protein, UniProt Q86X02 1-465, looked up)
Cerebellar …: MRRAAGMEDFSAEEEESWYDQQDLEQDLHLAAELGKTLLERNKELEGSLQQMYSTNEEQVQEIEYLTKQLDTLRHVNEQHAKVYEQLDLTARDLELTNHRLVLESKAAQQKIHGLTETIERLQAQVEELQAQVEQLRGLEQLRVLREKRERRRTIHTFPCLKELCTSPRCKDAFRLHSSSLELGPRPLEQENERLQTLVGALRSQVSQERQRKERAEREYTAVLQEYSELERQLCEMEACRLRVQELEAELLELQQMKQAKTYLLGPDDHLAEALLAPLTQAPEADDPQPGRGDDLGAQDGVSSPAASPGHVVRKSCSDTALNAIVAKDPASRHAGNLTLHANSVRKRGMSILREVDEQYHALLEKYEELLSKCRQHGAGVRHAGVQTSRPISRDSSWRDLRGGEEGQGEVKAGEKSLSQHVEAVDKRLEQSQPEYKALFKEIFSRIQKTKADINATKVKTHSSK
Difference (log2), untreated vs GFP [1, 3]: 4.028 log2

Difference (log2), PP1 vs untreated [2, 4]: -0.8415 log2
B10: UTP18 (protein, UniProt Q9Y5J1 1-556, looked up)
U3 small nucleolar …: MPPERRRRMKLDRRTGAKPKRKPGMRPDWKAGAGPGGPPQKPAPSSQRKPPARPSAAAAAIAVAAAEEERRLRQRNRLRLEEDKPAVERCLEELVFGDVENDEDALLRRLRGPRVQEHEDSGDSEVENEAKGNFPPQKKPVWVDEEDEDEEMVDMMNNRFRKDMMKNASESKLSKDNLKKRLKEEFQHAMGGVPAWAETTKRKTSSDDESEEDEDDLLQRTGNFISTSTSLPRGILKMKNCQHANAERPTVARISSVQFHPGAQIVMVAGLDNAVSLFQVDGKTNPKIQSIYLERFPIFKACFSANGEEVLATSTHSKVLYVYDMLAGKLIPVHQVRGLKEKIVRSFEVSPDGSFLLINGIAGYLHLLAMKTKELIGSMKINGRVAASTFSSDSKKVYASSGDGEVYVWDVNSRKCLNRFVDEGSLYGLSIATSRNGQYVACGSNCGVVNIYNQDSCLQETNPKPIKAIMNLVTGVTSLTFNPTTEILAIASEKMKEAVRLVHLPSCTVFSNFPVIKNKNISHVHTMDFSPRSGYFALGNEKGKALMYRLHHYSDF
Difference (log2), untreated vs GFP [1, 3]: 2.416 log2
